# Source: patent US20120172293A1 (Takeda / Millennium, published 2012)
# Non-standard residues stand in square brackets, D forms with d. No end group written: not given here. *: point of attachment. Tyr(3-F) = N[C@@H](Cc1ccc(O)c(F)c1)C(=O)O; Tyr(2-F) = N[C@@H](Cc1ccc(O)cc1F)C(=O)O; tBuAla = CC(C)(C)C[C@H](N)C(=O)O; 3Pal = N[C@@H](Cc1cccnc1)C(=O)O; 4Pal = N[C@@H](Cc1ccncc1)C(=O)O; Cha = N[C@@H](CC1CCCCC1)C(=O)O; Gly(cPr) = N[C@H](C(=O)O)C1CC1; dCha = N[C@H](CC1CCCCC1)C(=O)O; Isobutyryl = CC(C)C(=O)*; Abu = CC[C@H](N)C(=O)O; Aib = CC(C)(N)C(=O)O
# What was measured:
# [1] = target: human Y2 receptor (human) (UniProt P49146); test: cell-based or functional assay
# Chain of human Y2 receptor (human) (P49146 whole entry): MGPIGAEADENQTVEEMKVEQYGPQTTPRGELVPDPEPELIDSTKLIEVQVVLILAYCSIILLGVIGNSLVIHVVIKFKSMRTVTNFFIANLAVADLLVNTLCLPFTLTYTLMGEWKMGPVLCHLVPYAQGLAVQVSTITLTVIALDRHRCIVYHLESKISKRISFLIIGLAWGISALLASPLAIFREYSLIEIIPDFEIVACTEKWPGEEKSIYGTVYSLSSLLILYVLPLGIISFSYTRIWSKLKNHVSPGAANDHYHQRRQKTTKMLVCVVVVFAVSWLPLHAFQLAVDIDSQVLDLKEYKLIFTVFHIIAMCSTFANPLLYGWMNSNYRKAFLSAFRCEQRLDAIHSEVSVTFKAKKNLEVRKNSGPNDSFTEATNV
# [2] = target: human Y2 receptor (human) (UniProt P49146); test: RBA: [125I]-PYY displacement, hY2R/CHO membranes
binder,measurement,setting,value
"Isobutyryl-R[Abu][Cha][Cha]NL[Aib]TRQR[Tyr(3-F)]-NH2 (SMILES CC[C@H](NC(=O)[C@H](CCCNC(=N)N)NC(=O)C(C)C)C(=O)N[C@@H](CC1CCCCC1)C(=O)N[C@@H](CC1CCCCC1)C(=O)N[C@@H](CC(N)=O)C(=O)N[C@@H](CC(C)C)C(=O)NC(C)(C)C(=O)N[C@H](C(=O)N[C@@H](CCCNC(=N)N)C(=O)N[C@@H](CCC(N)=O)C(=O)N[C@@H](CCCNC(=N)N)C(=O)N[C@@H](Cc1ccc(O)c(F)c1)C(N)=O)[C@@H](C)O) [Isobutanoyl-[Abu26, Cha27,28, Aib31, Tyr(3F)36]-PYY(25-36)]","GBA EC50 Ratio (vs PYY(3-36)), [35S]GTPγS",[1],20
same,IC50 Ratio (vs PYY(3-36)),[2],26
"Isobutyryl-R[Abu]G[Cha]NL[Aib]TRQR[Cha]-NH2 (SMILES CC[C@H](NC(=O)[C@H](CCCNC(=N)N)NC(=O)C(C)C)C(=O)NCC(=O)N[C@@H](CC1CCCCC1)C(=O)N[C@@H](CC(N)=O)C(=O)N[C@@H](CC(C)C)C(=O)NC(C)(C)C(=O)N[C@H](C(=O)N[C@@H](CCCNC(=N)N)C(=O)N[C@@H](CCC(N)=O)C(=O)N[C@@H](CCCNC(=N)N)C(=O)N[C@@H](CC1CCCCC1)C(N)=O)[C@@H](C)O) [Isobutanoyl-[Abu26, Gly27, Cha28,36, Aib31]-PYY(25-36)]","GBA EC50 Ratio (vs PYY(3-36)), [35S]GTPγS",[1],49
same,IC50 Ratio (vs PYY(3-36)),[2],70
"Isobutyryl-R[Abu][Cha][Cha]NL[Aib]TRQR[Tyr(2-F)]-NH2 (SMILES CC[C@H](NC(=O)[C@H](CCCNC(=N)N)NC(=O)C(C)C)C(=O)N[C@@H](CC1CCCCC1)C(=O)N[C@@H](CC1CCCCC1)C(=O)N[C@@H](CC(N)=O)C(=O)N[C@@H](CC(C)C)C(=O)NC(C)(C)C(=O)N[C@H](C(=O)N[C@@H](CCCNC(=N)N)C(=O)N[C@@H](CCC(N)=O)C(=O)N[C@@H](CCCNC(=N)N)C(=O)N[C@@H](Cc1ccc(O)cc1F)C(N)=O)[C@@H](C)O) [Isobutanoyl-[Abu26, Cha27,28, Aib31, Tyr(2F)36]-PYY(25-36)]","GBA EC50 Ratio (vs PYY(3-36)), [35S]GTPγS",[1],11
same,IC50 Ratio (vs PYY(3-36)),[2],19
"Ac-[dCha]R[Abu][Cha][Cha]NL[Aib]TRQR[Cha]-NH2 (SMILES CC[C@H](NC(=O)[C@H](CCCNC(=N)N)NC(=O)[C@@H](CC1CCCCC1)NC(C)=O)C(=O)N[C@@H](CC1CCCCC1)C(=O)N[C@@H](CC1CCCCC1)C(=O)N[C@@H](CC(N)=O)C(=O)N[C@@H](CC(C)C)C(=O)NC(C)(C)C(=O)N[C@H](C(=O)N[C@@H](CCCNC(=N)N)C(=O)N[C@@H](CCC(N)=O)C(=O)N[C@@H](CCCNC(=N)N)C(=O)N[C@@H](CC1CCCCC1)C(N)=O)[C@@H](C)O) [Ac-[D-Cha24, Abu26, Cha27,28,36, Aib31]-PYY(24-36)]","GBA EC50 Ratio (vs PYY(3-36)), [35S]GTPγS",[1],13
same,IC50 Ratio (vs PYY(3-36)),[2],15
"Isobutyryl-R[Abu][Cha][Cha]NL[Gly(cPr)]TRQR[Cha]-NH2 (SMILES CC[C@H](NC(=O)[C@H](CCCNC(=N)N)NC(=O)C(C)C)C(=O)N[C@@H](CC1CCCCC1)C(=O)N[C@@H](CC1CCCCC1)C(=O)N[C@@H](CC(N)=O)C(=O)N[C@@H](CC(C)C)C(=O)N[C@H](C(=O)N[C@H](C(=O)N[C@@H](CCCNC(=N)N)C(=O)N[C@@H](CCC(N)=O)C(=O)N[C@@H](CCCNC(=N)N)C(=O)N[C@@H](CC1CCCCC1)C(N)=O)[C@@H](C)O)C1CC1) [Isobutanoyl-[Abu26, Cha27,28,36, Gly(cPr)31]-PYY(25-36)]","GBA EC50 Ratio (vs PYY(3-36)), [35S]GTPγS",[1],16
same,IC50 Ratio (vs PYY(3-36)),[2],25
"Isobutyryl-R[Abu][Cha][Cha]NL[3Pal]TRQR[Cha]-NH2 (SMILES CC[C@H](NC(=O)[C@H](CCCNC(=N)N)NC(=O)C(C)C)C(=O)N[C@@H](CC1CCCCC1)C(=O)N[C@@H](CC1CCCCC1)C(=O)N[C@@H](CC(N)=O)C(=O)N[C@@H](CC(C)C)C(=O)N[C@@H](Cc1cccnc1)C(=O)N[C@H](C(=O)N[C@@H](CCCNC(=N)N)C(=O)N[C@@H](CCC(N)=O)C(=O)N[C@@H](CCCNC(=N)N)C(=O)N[C@@H](CC1CCCCC1)C(N)=O)[C@@H](C)O) [Isobutanoyl-[Abu26, Cha27,28,36, Pya(3)31]-PYY(25-36)]","GBA EC50 Ratio (vs PYY(3-36)), [35S]GTPγS",[1],19
same,IC50 Ratio (vs PYY(3-36)),[2],25
"Isobutyryl-R[Abu][Cha][Cha]N[tBuAla][Aib]TRQR[Cha]-NH2 (SMILES CC[C@H](NC(=O)[C@H](CCCNC(=N)N)NC(=O)C(C)C)C(=O)N[C@@H](CC1CCCCC1)C(=O)N[C@@H](CC1CCCCC1)C(=O)N[C@@H](CC(N)=O)C(=O)N[C@@H](CC(C)(C)C)C(=O)NC(C)(C)C(=O)N[C@H](C(=O)N[C@@H](CCCNC(=N)N)C(=O)N[C@@H](CCC(N)=O)C(=O)N[C@@H](CCCNC(=N)N)C(=O)N[C@@H](CC1CCCCC1)C(N)=O)[C@@H](C)O) [Isobutanoyl-[Abu26, Cha27,28,36, Leu(Me)30, Aib31]-PYY(25-36)]","GBA EC50 Ratio (vs PYY(3-36)), [35S]GTPγS",[1],26
same,IC50 Ratio (vs PYY(3-36)),[2],51
"[dS]LR[Abu][Cha][Cha]NL[Aib]TRQR[Cha]-NH2 (N-terminus assumed; SMILES CC[C@H](NC(=O)[C@H](CCCNC(=N)N)NC(=O)[C@H](CC(C)C)NC(=O)[C@H](N)CO)C(=O)N[C@@H](CC1CCCCC1)C(=O)N[C@@H](CC1CCCCC1)C(=O)N[C@@H](CC(N)=O)C(=O)N[C@@H](CC(C)C)C(=O)NC(C)(C)C(=O)N[C@H](C(=O)N[C@@H](CCCNC(=N)N)C(=O)N[C@@H](CCC(N)=O)C(=O)N[C@@H](CCCNC(=N)N)C(=O)N[C@@H](CC1CCCCC1)C(N)=O)[C@@H](C)O) [[D-Ser23, Abu26, Cha27,28,36, Aib31]-PYY(23-36)]","GBA EC50 Ratio (vs PYY(3-36)), [35S]GTPγS",[1],11
same,IC50 Ratio (vs PYY(3-36)),[2],15
"Isobutyryl-R[Abu][Cha][Cha]NQ[Aib]TRQR[Cha]-NH2 (SMILES CC[C@H](NC(=O)[C@H](CCCNC(=N)N)NC(=O)C(C)C)C(=O)N[C@@H](CC1CCCCC1)C(=O)N[C@@H](CC1CCCCC1)C(=O)N[C@@H](CC(N)=O)C(=O)N[C@@H](CCC(N)=O)C(=O)NC(C)(C)C(=O)N[C@H](C(=O)N[C@@H](CCCNC(=N)N)C(=O)N[C@@H](CCC(N)=O)C(=O)N[C@@H](CCCNC(=N)N)C(=O)N[C@@H](CC1CCCCC1)C(N)=O)[C@@H](C)O) [Isobutanoyl-[Abu26, Cha27,28,36, Gln30, Aib31]-PYY(25-36)]","GBA EC50 Ratio (vs PYY(3-36)), [35S]GTPγS",[1],22
same,IC50 Ratio (vs PYY(3-36)),[2],19
"Isobutyryl-R[Abu][Cha][Gly(cPr)]NL[Aib]TRQR[Cha]-NH2 (SMILES CC[C@H](NC(=O)[C@H](CCCNC(=N)N)NC(=O)C(C)C)C(=O)N[C@@H](CC1CCCCC1)C(=O)N[C@H](C(=O)N[C@@H](CC(N)=O)C(=O)N[C@@H](CC(C)C)C(=O)NC(C)(C)C(=O)N[C@H](C(=O)N[C@@H](CCCNC(=N)N)C(=O)N[C@@H](CCC(N)=O)C(=O)N[C@@H](CCCNC(=N)N)C(=O)N[C@@H](CC1CCCCC1)C(N)=O)[C@@H](C)O)C1CC1) [Isobutanoyl-[Abu26, Cha27,36, Gly(cPr)28, Aib31]-PYY(25-36)]","GBA EC50 Ratio (vs PYY(3-36)), [35S]GTPγS",[1],41
same,IC50 Ratio (vs PYY(3-36)),[2],52
"Isobutyryl-R[Abu][Cha][Cha]NS[Aib]TRQR[Cha]-NH2 (SMILES CC[C@H](NC(=O)[C@H](CCCNC(=N)N)NC(=O)C(C)C)C(=O)N[C@@H](CC1CCCCC1)C(=O)N[C@@H](CC1CCCCC1)C(=O)N[C@@H](CC(N)=O)C(=O)N[C@@H](CO)C(=O)NC(C)(C)C(=O)N[C@H](C(=O)N[C@@H](CCCNC(=N)N)C(=O)N[C@@H](CCC(N)=O)C(=O)N[C@@H](CCCNC(=N)N)C(=O)N[C@@H](CC1CCCCC1)C(N)=O)[C@@H](C)O) [Isobutanoyl-[Abu26, Cha27,28,36, Ser30, Aib31]-PYY(25-36)]","GBA EC50 Ratio (vs PYY(3-36)), [35S]GTPγS",[1],28
same,IC50 Ratio (vs PYY(3-36)),[2],26
"Isobutyryl-R[Abu][Abu][Cha]NL[Aib]TRQR[Cha]-NH2 (SMILES CC[C@H](NC(=O)[C@H](CCCNC(=N)N)NC(=O)C(C)C)C(=O)N[C@@H](CC)C(=O)N[C@@H](CC1CCCCC1)C(=O)N[C@@H](CC(N)=O)C(=O)N[C@@H](CC(C)C)C(=O)NC(C)(C)C(=O)N[C@H](C(=O)N[C@@H](CCCNC(=N)N)C(=O)N[C@@H](CCC(N)=O)C(=O)N[C@@H](CCCNC(=N)N)C(=O)N[C@@H](CC1CCCCC1)C(N)=O)[C@@H](C)O) [Isobutanoyl-[Abu26,27, Cha28,36, Aib31]-PYY(25-36)]","GBA EC50 Ratio (vs PYY(3-36)), [35S]GTPγS",[1],37
same,IC50 Ratio (vs PYY(3-36)),[2],31
"Isobutyryl-R[Abu][Cha][Cha]NH[Aib]TRQR[Cha]-NH2 (SMILES CC[C@H](NC(=O)[C@H](CCCNC(=N)N)NC(=O)C(C)C)C(=O)N[C@@H](CC1CCCCC1)C(=O)N[C@@H](CC1CCCCC1)C(=O)N[C@@H](CC(N)=O)C(=O)N[C@@H](Cc1c[nH]cn1)C(=O)NC(C)(C)C(=O)N[C@H](C(=O)N[C@@H](CCCNC(=N)N)C(=O)N[C@@H](CCC(N)=O)C(=O)N[C@@H](CCCNC(=N)N)C(=O)N[C@@H](CC1CCCCC1)C(N)=O)[C@@H](C)O) [Isobutanoyl-[Abu26, Cha27,28,36, His30, Aib31]-PYY(25-36)]","GBA EC50 Ratio (vs PYY(3-36)), [35S]GTPγS",[1],20
same,IC50 Ratio (vs PYY(3-36)),[2],22
"Isobutyryl-R[Abu][Cha][Cha]N[Abu][Aib]TRQR[Cha]-NH2 (SMILES CC[C@H](NC(=O)[C@H](CCCNC(=N)N)NC(=O)C(C)C)C(=O)N[C@@H](CC1CCCCC1)C(=O)N[C@@H](CC1CCCCC1)C(=O)N[C@@H](CC(N)=O)C(=O)N[C@@H](CC)C(=O)NC(C)(C)C(=O)N[C@H](C(=O)N[C@@H](CCCNC(=N)N)C(=O)N[C@@H](CCC(N)=O)C(=O)N[C@@H](CCCNC(=N)N)C(=O)N[C@@H](CC1CCCCC1)C(N)=O)[C@@H](C)O) [Isobutanoyl-[Abu26, Cha27,28,36, Abu30, Aib31]-PYY(25-36)]","GBA EC50 Ratio (vs PYY(3-36)), [35S]GTPγS",[1],21
same,IC50 Ratio (vs PYY(3-36)),[2],20
"Isobutyryl-R[Abu][Cha][4Pal]NL[Aib]TRQR[Cha]-NH2 (SMILES CC[C@H](NC(=O)[C@H](CCCNC(=N)N)NC(=O)C(C)C)C(=O)N[C@@H](CC1CCCCC1)C(=O)N[C@@H](Cc1ccncc1)C(=O)N[C@@H](CC(N)=O)C(=O)N[C@@H](CC(C)C)C(=O)NC(C)(C)C(=O)N[C@H](C(=O)N[C@@H](CCCNC(=N)N)C(=O)N[C@@H](CCC(N)=O)C(=O)N[C@@H](CCCNC(=N)N)C(=O)N[C@@H](CC1CCCCC1)C(N)=O)[C@@H](C)O) [Isobutanoyl-[Abu26, Cha27,36, Pya(4)28, Aib31]-PYY(25-36)]","GBA EC50 Ratio (vs PYY(3-36)), [35S]GTPγS",[1],22
same,IC50 Ratio (vs PYY(3-36)),[2],26
